The target of the assay is 35S-labeled hamster PrPsen, glycophosphoinositol-negative form (35S-HaPrPsen) (Syrian golden hamster) (UniProt P04273). Briefly: cell-based or functional assay.

As for HaP109-141(del113-116) (peptide), the IC50 of the conversion reaction was 70 µM.

For the origin of these results see US20010041790A1.
